Reference: patent US20200109190A1 (AstraZeneca / MedImmune, published 2020)
Residue numbers refer to the chain shown, from its start. “And” between values parts separate entries of the source, which are not always exact repeats. Identical values can stand only once. Like-named read-outs stand apart in the source and are kept apart here.

Columns and labels:
S. aureus LukD [1] = target: T1, S. aureus LukD (Staphylococcus aureus, UniProt Q2FXB1 27-327)
T1 sequence: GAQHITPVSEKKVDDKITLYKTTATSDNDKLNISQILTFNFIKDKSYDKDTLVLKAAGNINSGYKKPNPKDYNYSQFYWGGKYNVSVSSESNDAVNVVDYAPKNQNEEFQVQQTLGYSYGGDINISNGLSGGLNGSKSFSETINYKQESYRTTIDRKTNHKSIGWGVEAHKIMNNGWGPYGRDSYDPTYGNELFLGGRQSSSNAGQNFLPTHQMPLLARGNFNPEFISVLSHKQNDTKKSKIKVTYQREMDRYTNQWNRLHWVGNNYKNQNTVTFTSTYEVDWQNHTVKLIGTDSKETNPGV

S. aureus LukF [2] = target: T2, S. aureus LukF (Staphylococcus aureus)
S. aureus HlgB [3] = target: T3, S. aureus HlgB (Staphylococcus aureus, UniProt P0A075 27-325)
T3 sequence: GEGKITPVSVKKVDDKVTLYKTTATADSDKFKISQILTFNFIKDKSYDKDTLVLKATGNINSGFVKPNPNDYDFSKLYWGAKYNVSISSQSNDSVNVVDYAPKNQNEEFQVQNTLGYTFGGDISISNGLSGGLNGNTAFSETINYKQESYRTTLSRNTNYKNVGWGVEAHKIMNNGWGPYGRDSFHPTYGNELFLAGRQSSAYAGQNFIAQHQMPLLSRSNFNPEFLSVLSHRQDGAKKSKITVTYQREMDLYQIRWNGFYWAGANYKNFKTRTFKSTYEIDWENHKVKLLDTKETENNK

S. aureus LukF [4] = target: T2, S. aureus LukF; assay: method not stated at Table 8; BLI (Octet) is described in Example 4
HlgAB [5] = target: T4, HlgAB (Staphylococcus aureus, UniProt P0A074 30-309); assay: cell-based or functional assay
T4 sequence 1: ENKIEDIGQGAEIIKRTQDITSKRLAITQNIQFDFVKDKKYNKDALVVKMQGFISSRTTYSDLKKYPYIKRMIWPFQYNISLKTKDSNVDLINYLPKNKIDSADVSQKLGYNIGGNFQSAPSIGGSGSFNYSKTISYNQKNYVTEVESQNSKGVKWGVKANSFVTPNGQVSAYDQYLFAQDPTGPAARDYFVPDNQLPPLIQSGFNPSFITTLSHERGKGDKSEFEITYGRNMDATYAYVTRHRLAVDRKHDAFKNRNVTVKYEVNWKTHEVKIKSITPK
T4 sequence 2: T3 sequence

LukSF [6] = target: T5, LukSF (Staphylococcus aureus); assay: cell-based or functional assay
HlgAB [7] = target: T4, HlgAB; assay: cell-based or functional assay; remark: listed apart in the source
LukSF [8] = target: T5, LukSF; assay: cell-based or functional assay; remark: listed apart in the source
HlgAB [9] = target: T4, HlgAB; assay: cell-based or functional assay; remark: listed apart in the source
LukSF [10] = target: T5, LukSF; assay: cell-based or functional assay; remark: listed apart in the source
S. aureus LukD [11] = target: T1, S. aureus LukD; assay: BLI (Octet384), antibody captured on anti-human IgG Fc biosensors, antigen in solution; dark sample
S. aureus LukF [12] = target: T2, S. aureus LukF; assay: as above
S. aureus HlgB [13] = target: T3, S. aureus HlgB; assay: as above
S. aureus LukD [14] = target: T1, S. aureus LukD; assay: BLI (Octet384), antibody captured on anti-human IgG Fc biosensors, antigen in solution; light-stressed sample
S. aureus LukF [15] = target: T2, S. aureus LukF; assay: as above
S. aureus HlgB [16] = target: T3, S. aureus HlgB; assay: as above
LukSF [17] = target: T5, LukSF; assay: cell-based or functional assay; remark: listed apart in the source
LukED = LukED (Staphylococcus aureus, UniProt O54081 29-314); assay: cell-based or functional assay
HlgCB = target: T6, HlgCB (Staphylococcus aureus, UniProt Q07227 30-315); assay: cell-based or functional assay
T6 sequence 1: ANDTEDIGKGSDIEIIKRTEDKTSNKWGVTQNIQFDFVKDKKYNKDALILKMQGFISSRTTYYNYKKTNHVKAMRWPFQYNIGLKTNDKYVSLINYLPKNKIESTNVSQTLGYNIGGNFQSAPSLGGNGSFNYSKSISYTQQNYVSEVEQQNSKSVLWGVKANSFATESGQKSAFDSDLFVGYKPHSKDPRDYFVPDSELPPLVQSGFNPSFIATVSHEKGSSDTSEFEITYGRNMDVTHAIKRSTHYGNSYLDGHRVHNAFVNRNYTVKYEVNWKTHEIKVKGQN
T6 sequence 2: T3 sequence

B1: SAN481-YTE (antibody)
heavy: QLQLVESGGGAVQPGRSLKLSCAASGFNFSTYAMHWVRQAPGRGLEWVAVTSFDGSNEYYIDSVKGRFTISRDNTKNTLYLQMTGLRVEDTALYFCARDEYTGGWYSVGYWGQGTLVTVSSASTKGPSVFPLAPSSKSTSGGTAALGCLVKDYFPEPVTVSWNSGALTSGVHTFPAVLQSSGLYSLSSVVTVPSSSLGTQTYICNVNHKPSNTKVDKRVEPKSCDKTHTCPPCPAPELLGGPSVFLFPPKPKDTLYITREPEVTCVVVDVSHEDPEVKFNWYVDGVEVHNAKTKPREEQYNSTYRVVSVLTVLHQDWLNGKEYKCKVSNKALPAPIEKTISKAKGQPREPQVYTLPPSREEMTKNQVSLTCLVKGFYPSDIAVEWESNGQPENNYKTTPPVLDSDGSFFLYSKLTVDKSRWQQGNVFSCSVMHEALHNHYTQKSLSLSPGK
light: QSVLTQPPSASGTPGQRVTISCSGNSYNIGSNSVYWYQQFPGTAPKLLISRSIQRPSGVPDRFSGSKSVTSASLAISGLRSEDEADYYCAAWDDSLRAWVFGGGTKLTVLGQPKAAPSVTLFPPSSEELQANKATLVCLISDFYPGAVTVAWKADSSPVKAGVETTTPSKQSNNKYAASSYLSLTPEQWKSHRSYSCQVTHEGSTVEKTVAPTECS
notes: also called QD1
B1 was tested, and the Kd (S. aureus LukD [1]) was less than 0.001 nM, the koff (S. aureus LukD [1]) was less than 1e-07 s⁻¹ and the kon (S. aureus LukD [1]) was 277000 M⁻¹ s⁻¹ and 294000 M⁻¹ s⁻¹. The Kd (S. aureus LukF [2]) was 0.232 nM and 0.226 nM, the koff (S. aureus LukF [2]) was 6.55e-05 s⁻¹ and 6.47e-05 s⁻¹ and the kon (S. aureus LukF [2]) was 283000 M⁻¹ s⁻¹ and 287000 M⁻¹ s⁻¹. For the same binder, the Kd (S. aureus HlgB [3]) was less than 0.001 nM, the koff (S. aureus HlgB [3]) was less than 1e-07 s⁻¹ and the kon (S. aureus HlgB [3]) was 240000 M⁻¹ s⁻¹ and 265000 M⁻¹ s⁻¹. For the same binder, the Kd (S. aureus LukF [4]) was 0.0148 nM, the “IC50 (HIgAB) HL-60” value (HlgAB [5]) was 0.54 µg/mL and the “IC50 (LukSF) HL-60” value (LukSF [6]) was 0.15 µg/mL. The “IC50 (HIgAB) HL-60; Dark sample” value (HlgAB [7]) was 0.704 µg/mL, the “IC50 (HIgAB) HL-60; Light sample” value (HlgAB [7]) was 0.821 µg/mL and the “IC50 (LukSF) HL-60; Dark sample” value (LukSF [8]) was 0.209 µg/mL. The “IC50 (LukSF) HL-60; Light sample” value (LukSF [8]) was 0.233 µg/mL, the “IC50 Fold loss vs. WT (HIgAB)” value (HlgAB [9]) was 0.95 fold and the “IC50 for HIgAB” value (HlgAB [9]) was 0.54 µg/mL. For the same binder, the “IC50 Fold loss vs. WT (LukSF)” value (LukSF [10]) was 0.938 fold and the “IC50 for LukSF” value (LukSF [10]) was 0.15 µg/mL.

B2: SAN481-T-YTE (antibody, V domains shown)
VH: QLQLVESGGGAVQPGRSLKLSCAASGFTFSTYAMHWVRQAPGRGLEWVAVTSFDGSNEYYIDSVKGRFTISRDNTKNTLYLQMTGLRVEDTALYFCARDEYTGGWYSVGYWGQGTLVTVSS
VL: QSVLTQPPSASGTPGQRVTISCSGNSYNIGSNSVYWYQQFPGTAPKLLISRSIQRPSGVPDRFSGSKSVTSASLAISGLRSEDEADYYCAAWDDSLRAWVFGGGTKLTVLG
notes: also called QD3; SAN481VH28T-YTE
For B2, the Kd (S. aureus LukF [4]) was less than 0.001 nM, the “IC50 (HIgAB) HL-60” value (HlgAB [5]) was 0.54 µg/mL and the “IC50 (LukSF) HL-60” value (LukSF [6]) was 0.17 µg/mL. The “IC50 (HIgAB) HL-60; Dark sample” value (HlgAB [7]) was 0.707 µg/mL, the “IC50 (HIgAB) HL-60; Light sample” value (HlgAB [7]) was 0.624 µg/mL and the “IC50 (LukSF) HL-60; Dark sample” value (LukSF [8]) was 0.193 µg/mL. The “IC50 (LukSF) HL-60; Light sample” value (LukSF [8]) was 0.205 µg/mL, the “IC50 Fold loss vs. WT (HIgAB)” value (HlgAB [9]) was 0.948 fold and the “IC50 for HIgAB” value (HlgAB [9]) was 0.539 µg/mL. For the same binder, the “IC50 Fold loss vs. WT (LukSF)” value (LukSF [10]) was 1.04 fold and the “IC50 for LukSF” value (LukSF [10]) was 0.166 µg/mL.

B3: SAN481-TF-YTE (antibody, V domains shown)
VH: B2 VH with W105F
VL: B2 VL
notes: also called QD4; SAN481-VH28T100E-YTE
In the case of B3, the Kd (S. aureus LukF [4]) is reported as 1.21 nM, the “IC50 (HIgAB) HL-60” value (HlgAB [5]) is reported as 0.44 µg/mL and the “IC50 (LukSF) HL-60” value (LukSF [6]) is reported as 0.81 µg/mL. The “IC50 Fold loss vs. WT (HIgAB)” value (HlgAB [9]) was 0.775 fold, the “IC50 for HIgAB” value (HlgAB [9]) was 0.441 µg/mL and the “IC50 Fold loss vs. WT (LukSF)” value (LukSF [10]) was 5.07 fold. The “IC50 for LukSF” value (LukSF [10]) was 0.811 µg/mL.

B4: SAN481-SYT-YTE (antibody, V domains shown)
VH: B2 VH
VL: B2 VL with N25S, S33Y
notes: also called QD5
For B4, the Kd (S. aureus LukD [11]) was less than 0.001 nM, the koff (S. aureus LukD [11]) was less than 1e-07 s⁻¹ and the kon (S. aureus LukD [11]) was 279000 M⁻¹ s⁻¹. The Kd (S. aureus LukF [12]) was 0.101 nM, the koff (S. aureus LukF [12]) was 3.69e-05 s⁻¹ and the kon (S. aureus LukF [12]) was 365000 M⁻¹ s⁻¹. It also gave a Kd (S. aureus HlgB [13]) of 0.0191 nM, a koff (S. aureus HlgB [13]) of 4.88e-06 s⁻¹ and a kon (S. aureus HlgB [13]) of 255000 M⁻¹ s⁻¹. The Kd (S. aureus LukD [14]) was less than 0.001 nM, the koff (S. aureus LukD [14]) was less than 1e-07 s⁻¹ and the kon (S. aureus LukD [14]) was 263000 M⁻¹ s⁻¹. It also gave a Kd (S. aureus LukF [15]) of less than 0.001 nM, a koff (S. aureus LukF [15]) of less than 1e-07 s⁻¹ and a kon (S. aureus LukF [15]) of 257000 M⁻¹ s⁻¹. For the same binder, the Kd (S. aureus HlgB [16]) was less than 0.001 nM, the koff (S. aureus HlgB [16]) was less than 1e-07 s⁻¹ and the kon (S. aureus HlgB [16]) was 244000 M⁻¹ s⁻¹. For the same binder, the Kd (S. aureus LukF [4]) was 0.101 nM, the “IC50 (HIgAB) HL-60” value (HlgAB [5]) was 0.54 µg/mL and the “IC50 (LukSF) HL-60” value (LukSF [6]) was 0.16 µg/mL. For the same binder, the “IC50 (HIgAB) HL-60; Dark sample” value (HlgAB [7]) was 0.576 µg/mL, the “IC50 (HIgAB) HL-60; Light sample” value (HlgAB [7]) was 0.645 µg/mL and the “IC50 (LukSF) HL-60; Dark sample” value (LukSF [8]) was 0.163 µg/mL. For the same binder, the “IC50 (LukSF) HL-60; Light sample” value (LukSF [8]) was 0.184 µg/mL, the “IC50 Fold loss vs. WT (HIgAB)” value (HlgAB [9]) was 0.951 fold and the “IC50 for HIgAB” value (HlgAB [9]) was 0.54 µg/mL. For the same binder, the “IC50 Fold loss vs. WT (LukSF)” value (LukSF [10]) was 1.01 fold, the “IC50 for LukSF” value (LukSF [10]) was 0.162 µg/mL and the “IC50 (read off the curve)” value (LukSF [17]) was roughly 0.4 µg/mL. The “IC50 (read off the curve)” value (LukED) was roughly 4 µg/mL and the “IC50 (read off the curve)” value (HlgCB) was roughly 2 µg/mL.

B5: SAN481-SY-YTE (antibody, V domains shown)
VH: B2 VH with T28N
VL: B2 VL with N25S, S33Y
notes: also called QD2; SAN481VL26S32Y-YTE
For B5, the Kd (S. aureus LukF [4]) was 0.101 nM, the “IC50 (HIgAB) HL-60” value (HlgAB [5]) was 0.55 µg/mL and the “IC50 (LukSF) HL-60” value (LukSF [6]) was 0.18 µg/mL. For the same binder, the “IC50 (HIgAB) HL-60; Dark sample” value (HlgAB [7]) was 0.721 µg/mL, the “IC50 (HIgAB) HL-60; Light sample” value (HlgAB [7]) was 0.736 µg/mL and the “IC50 (LukSF) HL-60; Dark sample” value (LukSF [8]) was 0.221 µg/mL. The “IC50 (LukSF) HL-60; Light sample” value (LukSF [8]) was 0.241 µg/mL, the “IC50 Fold loss vs. WT (HIgAB)” value (HlgAB [9]) was 0.97 fold and the “IC50 for HIgAB” value (HlgAB [9]) was 0.551 µg/mL. For the same binder, the “IC50 Fold loss vs. WT (LukSF)” value (LukSF [10]) was 1.14 fold and the “IC50 for LukSF” value (LukSF [10]) was 0.183 µg/mL.
